Results taken from PMC11828465.

Target: Vps26A (UniProt O75436)
Assay: BRET titration curves in live cells
Conditions: sites S72

Rab7A (from UniProt P51149) NEK7KO HEK293 cells
other: BRET50 (reference: wild-type HEK293 cells): weaker; reference 0.0022±0.0009

Rab7A (from UniProt P51149) NEK7KO HEK293 cells expressing HA–NEK7
other: BRET50 (reference: NEK7KO HEK293 cells): stronger; reference 0.0096±0.0039

Rab7A (from UniProt P51149) S72A
other: BRET50 (reference: wild type RlucII–Rab7A): weaker; reference 0.0026±0.000512
